Assay results from patent KR20200059381A.

How the values were obtained:
[1] = biological target: 구제역 바이러스 혈청형 O 배양액(cal1~cal4) (Foot-and-mouth disease virus serotype O); test: sandwich ELISA, cal3, 1E58 coat 8 ug/ml, 1E58-HRP 0.2 ug/ml, 450 nm
[2] = biological target: 구제역 바이러스 혈청형 O 배양액(cal1~cal4) (Foot-and-mouth disease virus serotype O); test: sandwich ELISA, cal2, 1E58 coat 8 ug/ml, 1E58-HRP 0.4 ug/ml, 450 nm
[3] = biological target: 구제역 바이러스 혈청형 O 배양액(cal1~cal4) (Foot-and-mouth disease virus serotype O); test: sandwich ELISA, cal2, 1E58 coat 2 ug/ml, 1E58-HRP 0.8 ug/ml, 450 nm
[4] = biological target: 구제역 바이러스 혈청형 O 배양액(cal1~cal4) (Foot-and-mouth disease virus serotype O); test: sandwich ELISA, cal2, 1E58 coat 4 ug/ml, 1E58-HRP 0.4 ug/ml, 450 nm
[5] = biological target: 구제역 바이러스 혈청형 O 배양액(cal1~cal4) (Foot-and-mouth disease virus serotype O); test: sandwich ELISA, cal3, 1E58 coat 4 ug/ml, 1E58-HRP 0.4 ug/ml, 450 nm
[6] = biological target: 구제역 바이러스 혈청형 O 배양액(cal1~cal4) (Foot-and-mouth disease virus serotype O); test: sandwich ELISA, cal1, 1E58 coat 2 ug/ml, 1E58-HRP 0.8 ug/ml, 450 nm
[7] = biological target: 구제역 바이러스 혈청형 O 배양액(cal1~cal4) (Foot-and-mouth disease virus serotype O); test: sandwich ELISA, cal1, 1E58 coat 4 ug/ml, 1E58-HRP 0.8 ug/ml, 450 nm
[8] = biological target: 구제역 바이러스 혈청형 O 배양액(cal1~cal4) (Foot-and-mouth disease virus serotype O); test: sandwich ELISA, cal2, 1E58 coat 4 ug/ml, 1E58-HRP 0.8 ug/ml, 450 nm
[9] = biological target: 구제역 바이러스 혈청형 O 배양액(cal1~cal4) (Foot-and-mouth disease virus serotype O); test: sandwich ELISA, cal3, 1E58 coat 4 ug/ml, 1E58-HRP 0.8 ug/ml, 450 nm
[10] = biological target: 구제역 바이러스 혈청형 O 배양액(cal1~cal4) (Foot-and-mouth disease virus serotype O); test: sandwich ELISA, cal3, 1E58 coat 2 ug/ml, 1E58-HRP 0.6 ug/ml, 450 nm
[11] = biological target: 구제역 바이러스 혈청형 O 배양액(cal1~cal4) (Foot-and-mouth disease virus serotype O); test: sandwich ELISA, cal4, 1E58 coat 8 ug/ml, 1E58-HRP 0.4 ug/ml, 450 nm
[12] = biological target: 구제역 바이러스 혈청형 O 배양액(cal1~cal4) (Foot-and-mouth disease virus serotype O); test: sandwich ELISA, cal3, 1E58 coat 2 ug/ml, 1E58-HRP 0.2 ug/ml, 450 nm
[13] = biological target: 구제역 바이러스 혈청형 O 배양액(cal1~cal4) (Foot-and-mouth disease virus serotype O); test: sandwich ELISA, cal2, 1E58 coat 4 ug/ml, 1E58-HRP 0.6 ug/ml, 450 nm
[14] = biological target: 구제역 바이러스 혈청형 O 배양액(cal1~cal4) (Foot-and-mouth disease virus serotype O); test: sandwich ELISA, cal4, 1E58 coat 1 ug/ml, 1E58-HRP 0.6 ug/ml, 450 nm
[15] = biological target: 구제역 바이러스 혈청형 O 배양액(cal1~cal4) (Foot-and-mouth disease virus serotype O); test: sandwich ELISA, cal4, 1E58 coat 4 ug/ml, 1E58-HRP 0.6 ug/ml, 450 nm
[16] = biological target: 불활화 FMDV 혈청형 O (Foot-and-mouth disease virus serotype O)
[17] = biological target: 구제역 바이러스 혈청형 O 배양액(cal1~cal4) (Foot-and-mouth disease virus serotype O); test: sandwich ELISA, cal1, 1E58 coat 1 ug/ml, 1E58-HRP 0.6 ug/ml, 450 nm
[18] = biological target: 구제역 바이러스 혈청형 O 배양액(cal1~cal4) (Foot-and-mouth disease virus serotype O); test: sandwich ELISA, cal3, 1E58 coat 2 ug/ml, 1E58-HRP 0.8 ug/ml, 450 nm
[19] = biological target: 구제역 바이러스 혈청형 O 배양액(cal1~cal4) (Foot-and-mouth disease virus serotype O); test: sandwich ELISA, cal4, 1E58 coat 4 ug/ml, 1E58-HRP 0.8 ug/ml, 450 nm
[20] = biological target: 구제역 바이러스 혈청형 O 배양액(cal1~cal4) (Foot-and-mouth disease virus serotype O); test: sandwich ELISA, cal1, 1E58 coat 4 ug/ml, 1E58-HRP 0.2 ug/ml, 450 nm
[21] = biological target: 구제역 바이러스 혈청형 O 배양액(cal1~cal4) (Foot-and-mouth disease virus serotype O); test: sandwich ELISA, cal4, 1E58 coat 1 ug/ml, 1E58-HRP 0.4 ug/ml, 450 nm
[22] = biological target: 구제역 바이러스 혈청형 O 배양액(cal1~cal4) (Foot-and-mouth disease virus serotype O); test: sandwich ELISA, cal2, 1E58 coat 1 ug/ml, 1E58-HRP 0.6 ug/ml, 450 nm
[23] = biological target: 구제역 바이러스 혈청형 O 배양액(cal1~cal4) (Foot-and-mouth disease virus serotype O); test: sandwich ELISA, cal1, 1E58 coat 1 ug/ml, 1E58-HRP 0.2 ug/ml, 450 nm
[24] = biological target: 구제역 바이러스 혈청형 O 배양액(cal1~cal4) (Foot-and-mouth disease virus serotype O); test: sandwich ELISA, cal3, 1E58 coat 8 ug/ml, 1E58-HRP 0.6 ug/ml, 450 nm
[25] = biological target: 구제역 바이러스 혈청형 O 배양액(cal1~cal4) (Foot-and-mouth disease virus serotype O); test: sandwich ELISA, cal2, 1E58 coat 1 ug/ml, 1E58-HRP 0.2 ug/ml, 450 nm
[26] = biological target: 구제역 바이러스 혈청형 O 배양액(cal1~cal4) (Foot-and-mouth disease virus serotype O); test: sandwich ELISA, cal1, 1E58 coat 2 ug/ml, 1E58-HRP 0.4 ug/ml, 450 nm
[27] = biological target: 구제역 바이러스 혈청형 O 배양액(cal1~cal4) (Foot-and-mouth disease virus serotype O); test: sandwich ELISA, cal1, 1E58 coat 8 ug/ml, 1E58-HRP 0.8 ug/ml, 450 nm
[28] = biological target: 구제역 바이러스 혈청형 O 배양액(cal1~cal4) (Foot-and-mouth disease virus serotype O); test: sandwich ELISA, cal3, 1E58 coat 8 ug/ml, 1E58-HRP 0.4 ug/ml, 450 nm

B1: 단클론항체 1E58 (antibody, V domains shown)
VH: EFQLQQSRPELAKPGASVKISCKTSGHTFTTYTMHWVKQSHVKSLEWIGCFNPNNGGATYNQKFKGKATLTMDKSSNTAYVEVRSLTSDDSAVYYCAYGNYVNFDYWGQGTTLTVSS
VL: DIVLTQSPASLAVSLGQRATISYRASKSVSTSGYSYMHWNQQKPGQPPRLLIYLVSNLESGVPARFSGSGSGTDFTLNIHPVEEEDAATYYCQHIRELTRSEGGPSWKN
- O.D [1]: 0.62 O.D
- O.D [2]: 1.85 O.D
- O.D [3]: 3.67 O.D
- O.D [4]: 3.08 O.D
- O.D [5]: 1.78 O.D
- O.D [6]: 4 O.D
- O.D [7]: 4 O.D
- O.D [8]: 3.75 O.D
- O.D [9]: 2.65 O.D
- O.D [10]: 1.89 O.D
- O.D [11]: 0.39 O.D
- O.D [12]: 0.98 O.D
- O.D [13]: 3.47 O.D
- O.D [14]: 0.74 O.D
- O.D [15]: 1.11 O.D
- O.D (450nm) [16]: 1.09 O.D
- O.D [17]: 2.98 O.D
- O.D [18]: 2.08 O.D
- O.D [19]: 1.46 O.D
- O.D [20]: 3.47 O.D
- O.D [21]: 0.65 O.D
- O.D [22]: 1.55 O.D
- O.D [23]: 1.81 O.D
- O.D [24]: 1.13 O.D
- O.D [25]: 1.06 O.D
- O.D [26]: 3.87 O.D
- O.D [27]: 4 O.D
- O.D [28]: 0.96 O.D
